Data set [1] has as its target D-lactate dehydrogenase from Sporolactobacillus inulinus CASD (DLDH744) (Sporolactobacillus inulinus CASD). Kind of data set: crystal structure; DLDH744 in complex with NAD+; molecular replacement, refined at 3.15 Å; homo-dimer in one asymmetric unit.
Substrate in data set [2]: CC(=O)C(=O)O
Kind of data set: purified protein. The class given is biochemical, Sporolactobacillus inulinus. Conditions: 100 mM PBS pH 5.5, 30°C, 0.2 mM NADH or NADPH (which one not told).

Substrate in data set [3]: N[C@@H](CCC(=O)O)C(=O)O
Kind of data set: purified protein. Conditions: 100 mM PBS pH 5.5, 30°C, oxidative deamination, cofactor of the kinetic run not clearly told (0.2 mM NAD(P)+ in activity assay). Format: biochemical, Sporolactobacillus inulinus.

Substrate in data set [4]: O=C(O)C(=O)Cc1ccccc1
Kind of data set: purified protein. Format: biochemical, Sporolactobacillus inulinus. Conditions: 100 mM PBS pH 5.5, 30°C, 0.2 mM NADH or NADPH (which one not told).

In data set [1], “D-lactate dehydrogenase from Sporolactobacillus inulinus CASD (DLDH744) (enzyme)” came in with a stoichiometry N of 2.

B1: DLDH744 (Sporolactobacillus inulinus CASD) (protein)
chain: MKIIMFSVRDDEEAAIREWEKKTGVQVDINRLELDAETAQLTKGYDGIVIQQRSHISNPAVYETLQKNGLRQLTSRTAGYDMIDLEQASERGLVVTNVPAYSPNSVAELALTQTMRLIRNLPLFDARGAEQDFRWAGLMAREIRSLTVGIIGAGRIGGTVARLFKALGATVIANDIVERVELKDIVTYVSKEELLQAADVVTLHVPLMDSTTQLIDADALALMKNDAVLINASRGPVVDTDALIAALQNKQIAGAALDTLNGEEHFFNQDLCGKELPSEQLKVLRTLPNVLITPHIGFYTNKAVQNMVEISLNDVLAILKTGTSEHQLNKVAVEN
notes: full length, 335 residues, homodimer; vector pET-28a(+), E. coli BL21(DE3); purified
As for B1, the figures for the Km in data set [2], in data set [3] and in data set [4] were 3.4 ± 0.02 mM, 5.7 ± 0.09 mM and 3.32 ± 0.08 mM, respectively. For the same molecule, the kcat in data set [2] worked out at 8.537 ± 0.127 s⁻¹; in data set [3] it was 0.372 ± 0.0017 s⁻¹.

For the origin of these results see article PMC4580590.
